Assay [1] has as its target T1, soluble mouse VEGFR2-hIgG.FC fusion protein (mouse; human, UniProt P35918 20-762).
T1 construct: Bought from R&D Systems; also called soluble mouse VEGFR-2-human IgG-FC fusion protein; mVEGFR2-hIgG.FC; not shown: human IgG Fc
Briefly: flow cytometry, transduced mouse CD3+CD4+ T cells stained with soluble mVEGFR2-hIgG.FC and PE anti-human IgG-FC; mean ± SEM of 5 experiments. As for the experimental part:
(§1) Mouse T cells were retrovirally transduced with retroviral vectors DC101-CD828Z or DC101-CD828BBZ CAR as described in Example 5 or were transduced with the DC101-CD8 or SP6-CD828BBZ vectors described in Comparative Example 1, or with an empty MSGV vector (lacking any of the CAR sequences). Surface expression of the retrovirally encoded transgene products in transduced CD3⁺ primary mouse T cells was determined by flow cytometry using the soluble mouse VEGFR-2-human IgG-FC fusion protein and PE-conjugated anti-human IgG-FC.
(§2) On day 4 post-transduction, cells were costained with anti-mouse CD8 antibody and CAR-specific reagents and were FACS analysed to determine the expression of transgene products in CD8⁺and CD8″ T cell subsets. Detection of DC101 CAR on retrovirally transduced mouse T cells on day 4 after transduction was achieved by indirect immunofluorescence with soluble mouse (m) VEGFR2-hIgG.FC fusion protein (R&D Systems®, Minneapolis, […].), followed by staining with a phycoerythrin (PE)-labeled goat anti-human IgG-FC antibody (eBioscience™, San Diego, Calif.). Briefly, 5×10⁵ cells were incubated with 2 μg of bovine serum albumin (BSA; Sigma-Aldrich®) or species-specific soluble mVEGFR2-hIgG.FC protein at 4° C. for 45 min. Cells were then washed in FACS buffer (phosphate buffered saline containing 1% FBS) and stained with PE-conjugated anti human IgG-FC (αchIgG.FC). At this step, mouse T cells were co-stained with peridinin chlorophyll (PerCP)-labeled anti-mouse CD8 (BD Pharmingen, San Diego, Calif.) at appropriate concentrations recommended by the manufacturer at 4° C. for 20-30 min, then washed and resuspended in FACS buffer. Cells incubated with 2 μg bovine serum albumin (BSA) and subsequently stained with PE-conjugated anti human IgG-FC (αhIgG-FC) and PerCP labeled anti-mouse CD8 served as a control.

Assay [2] deals with T1, soluble mouse VEGFR2-hIgG.FC fusion …. Briefly: flow cytometry, transduced mouse CD3+CD8+ T cells stained with soluble mVEGFR2-hIgG.FC and PE anti-human IgG-FC; mean ± SEM of 5 experiments. As for the experimental part:
as §1, §2

The source of these data is US20150030597A1 (US Dept. of Health and Human Services, published 2015).

T1 sequence (P35918 20-762 limits assumed): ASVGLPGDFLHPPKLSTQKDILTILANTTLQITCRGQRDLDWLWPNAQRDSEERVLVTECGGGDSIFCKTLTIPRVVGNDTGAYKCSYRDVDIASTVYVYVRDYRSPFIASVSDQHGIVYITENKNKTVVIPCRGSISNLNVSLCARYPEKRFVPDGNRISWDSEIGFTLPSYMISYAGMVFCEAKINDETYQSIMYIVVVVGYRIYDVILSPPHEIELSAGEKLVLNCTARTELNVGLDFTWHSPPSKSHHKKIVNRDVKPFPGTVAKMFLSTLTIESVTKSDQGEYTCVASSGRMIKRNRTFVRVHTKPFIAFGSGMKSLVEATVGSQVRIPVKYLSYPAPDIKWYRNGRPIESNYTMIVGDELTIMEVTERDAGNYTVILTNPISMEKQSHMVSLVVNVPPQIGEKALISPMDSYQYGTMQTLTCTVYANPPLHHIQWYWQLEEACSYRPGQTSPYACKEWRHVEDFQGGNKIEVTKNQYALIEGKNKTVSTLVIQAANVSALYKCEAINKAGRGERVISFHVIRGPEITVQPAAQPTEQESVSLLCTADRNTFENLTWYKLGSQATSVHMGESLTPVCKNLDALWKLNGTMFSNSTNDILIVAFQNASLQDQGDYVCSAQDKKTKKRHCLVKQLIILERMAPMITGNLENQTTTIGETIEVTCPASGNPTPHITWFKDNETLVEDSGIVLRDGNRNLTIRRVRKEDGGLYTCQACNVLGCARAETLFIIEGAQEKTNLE

B1: DC101-CD828Z CAR (other)
chain: EVQLVETGGGLVQPGNSLKLSCATSGFIFSTTWMNWIRQTPGKRLEWLAQIEDKSNNYFISYSESVKGRFTISRDDSKSSVYLQMNNLKEEDTAIYYCSWKYRSNYYFDYWGQGVMVTVSSGSTSGSGKPGSGEGSDIVLTQSPALAVSLEQRATISCKTSQNVDYYGISYLHWYQQKPGQQPKLLIYEGSNLASGIPARFSGSGSGTDFTLTIDPVEADDIVTYYCQQSKDYPYTFGAGTKLELKAAATTTKPVLRTPSPVHPTGTSQPQRPEDCRPRGSVKGTGLDFACDIYIWAPLAGICVALLLSLIITLICYHRSRNSRRNRLLQVTTMNMTPRRPGLTRKPYQPYAPARDFAAYRPRAKFSRSAETAANLQDPNQLYNELNLGRREEYDVLEKKRARDPEMGGKQQRRRNPQEGVYNALQKDKMAEAYSEIGTKGERRRGKGHDGLYQGLSTATKDTYDALHMQTLAPR
notes: Chimeric antigen receptor on transduced primary mouse T cells: same as DC101-CD828BBZ but without the 4-1BB signalling domain; also called DC101-mCD828Z; MSGV-DC101-CD828Z
In the case of B1, the “% Transduction (percent transgene positive cells)” value in assay [1] is 84%; in assay [2], 86%. Besides, the “Mean Fluorescence Intensity (MFI)” value came out at 95 in assay [1] and 92 in assay [2].

B2: DC101-CD828BBZ CAR (other)
chain: EVQLVETGGGLVQPGNSLKLSCATSGFIFSTTWMNWIRQTPGKRLEWLAQIEDKSNNYFISYSESVKGRFTISRDDSKSSVYLQMNNLKEEDTAIYYCSWKYRSNYYFDYWGQGVMVTVSSGSTSGSGKPGSGEGSDIVLTQSPALAVSLEQRATISCKTSQNVDYYGISYLHWYQQKPGQQPKLLIYEGSNLASGIPARFSGSGSGTDFTLTIDPVEADDIVTYYCQQSKDYPYTFGAGTKLELKAAATTTKPVLRTPSPVHPTGTSQPQRPEDCRPRGSVKGTGLDFACDIYIWAPLAGICVALLLSLIITLICYHRSRNSRRNRLLQVTTMNMTPRRPGLTRKPYQPYAPARDFAAYRPKWIRKKFPHIFKQPFKKTTGAAQEEDACSCRCPQEEEGGGGGYELRAKFSRSAETAANLQDPNQLYNELNLGRREEYDVLEKKRARDPEMGGKQQRRRNPQEGVYNALQKDKMAEAYSEIGTKGERRRGKGHDGLYQGLSTATKDTYDALHMQTLAPR
notes: also called DC101-mCD828BBZ; MSGV-DC101-CD828BBZ
As to B2, in assay [1], the “% Transduction (percent transgene positive cells)” value was found to be 79% and the “Mean Fluorescence Intensity (MFI)” value was found to be 76.5. Also, in assay [2], the “% Transduction (percent transgene positive cells)” value was 78.2% and the “Mean Fluorescence Intensity (MFI)” value was 75.8.

B3: DC101-CD8 (other)
chain: EVQLVETGGGLVQPGNSLKLSCATSGFIFSTTWMNWIRQTPGKRLEWLAQIEDKSNNYFISYSESVKGRFTISRDDSKSSVYLQMNNLKEEDTAIYYCSWKYRSNYYFDYWGQGVMVTVSSGSTSGSGKPGSGEGSDIVLTQSPALAVSLEQRATISCKTSQNVDYYGISYLHWYQQKPGQQPKLLIYEGSNLASGIPARFSGSGSGTDFTLTIDPVEADDIVTYYCQQSKDYPYTFGAGTKLELKTTTKPVLRTPSPVHPTGTSQPQRPEDCRPRGSVKGTGLDFACDIYIWAPLAGICVALLLSLIITLICYHRSR
notes: also called MSGV-DC101-CD8
Consider B3, for which, in assay [1], the “% Transduction (percent transgene positive cells)” value was 83.2% and the “Mean Fluorescence Intensity (MFI)” value was determined as 114. In assay [2], the “% Transduction (percent transgene positive cells)” value was determined as 80.8% and the “Mean Fluorescence Intensity (MFI)” value was found to be 108.
